{
  "source": "paper PMC11699195",
  "test": "immunoblot, H460, A549, HCC827 cells",
  "conditions": "glycan gained; control: mock vector",
  "data": [
    {"substance": "PD-L1: RPN1-HA overexpression", "values": [
      {"measurement": "expression_or_secretion", "value": "increases"}
    ]}
  ]
}
